{
  "source": "paper PMC4623992",
  "origin": "cited, not measured here",
  "target": "TLR4 (Homo sapiens) (UniProt O00206)",
  "sequence (O00206 24-631)": "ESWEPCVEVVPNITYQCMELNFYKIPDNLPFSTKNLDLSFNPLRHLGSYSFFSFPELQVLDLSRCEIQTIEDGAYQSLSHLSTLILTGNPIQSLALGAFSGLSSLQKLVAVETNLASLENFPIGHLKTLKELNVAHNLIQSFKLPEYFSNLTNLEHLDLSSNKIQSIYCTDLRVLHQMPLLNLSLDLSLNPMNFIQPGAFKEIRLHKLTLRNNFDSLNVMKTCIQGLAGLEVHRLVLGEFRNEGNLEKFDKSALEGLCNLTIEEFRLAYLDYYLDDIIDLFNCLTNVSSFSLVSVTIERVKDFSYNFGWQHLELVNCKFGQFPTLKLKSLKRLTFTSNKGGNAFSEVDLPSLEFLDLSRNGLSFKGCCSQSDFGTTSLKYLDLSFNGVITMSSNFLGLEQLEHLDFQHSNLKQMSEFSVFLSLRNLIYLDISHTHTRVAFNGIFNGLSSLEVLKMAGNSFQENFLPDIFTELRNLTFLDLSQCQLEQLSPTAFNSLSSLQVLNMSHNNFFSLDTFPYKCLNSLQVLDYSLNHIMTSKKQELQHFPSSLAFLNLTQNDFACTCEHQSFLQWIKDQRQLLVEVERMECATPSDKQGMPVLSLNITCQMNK",
  "data": [
    {"substance": "MD-2 (from UniProt Q9Y6Y9)", "values": [
      {"measurement": "Kd", "result": 0.012, "unit": "µM"}
    ]}
  ]
}
